From the supplement of paper PMC10567573

B1: SPRY1 (parent)
chain: WIHRPGCRCKNSNTVYCKLESCPS
B2: ZNF232 (parent)
chain: FPKSEQVYLHFLSVVTEDGPEPKD

Variants of: B1
Assay: protein stability index of a GFP-peptide fusion (GPS, HEK-293T) (PSI 1-6); higher = more stable
Details: c terminus: a fixed tail appended
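Note: lentivirally expressed fusions sorted by FACS into six bins by GFP to DsRed ratio, PSI derived from sequencing read proportions per bin multiplied by bin number.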

Protein stability index of substitutions, site by site:
R4: G 3.95 | E 3.48 | C 2.77 | D 3.73 | Q 4.23 | V 3.11 | T 2.67 | P 3.03 | Y 3.18 | H 3.3 | A 2.51 | W 1.97 | M 2.85 | I 2.82 | L 3.06 | F 2.72 | N 3.43 | S 3.07 | K 2.34
P5: Q 2.38 | V 2.65 | S 2.27 | E 3.08 | G 1.85 | I 2.11 | T 2.37 | D 3.42 | H 1.91 | R 3.01 | C 2.02 | Y 3.19 | N 2.39 | L 2.77 | F 1.79 | M 2.15 | W 1.82 | A 2.02 | K 2.21
N11: T 2.1 | A 3.47 | D 2.88 | M 2.66 | Q 2.41 | E 2.62 | H 2.52 | K 2.19 | F 2.42 | P 2.27 | R 4.1 | G 2.15 | C 1.83 | I 1.86 | V 3.49 | L 2.51 | S 2.7
G6: D 2.62 | W 2.69 | Q 2.16 | S 2.48 | K 2.32 | N 2.37 | E 3.01 | V 1.93 | P 2.61 | F 1.7 | I 3.08 | M 2.16 | T 3.09 | L 1.97 | H 2.06 | R 2.12 | Y 2.26 | C 2 | A 2.15
C7: S 1.77 | I 1.52 | D 2.28 | K 1.49 | T 1.82 | M 2.14 | N 2.37 | R 3.4 | H 2.55 | P 1.4 | V 1.15 | L 1.72 | W 3 | Y 1.45 | G 1.25 | E 1.85 | F 2.89 | Q 1.94 | A 2.35
R8: S 2.24 | C 2.25 | K 2.68 | F 2.08 | H 2.63 | Q 3.29 | P 2.4 | I 2.38 | T 2.26 | Y 2.2 | N 3.28 | W 2.21 | M 2.83 | D 2.67 | L 2.6 | G 2.81 | V 2.57 | E 3.33 | A 3
K10: V 2 | W 2.41 | F 1.74 | L 1.96 | E 2.73 | P 2.73 | N 2.75 | H 2.77 | A 2.33 | T 3.11 | Q 2.81 | G 2.75 | Y 1.82 | R 2.21 | S 2.26 | I 2.88 | M 1.63 | D 3.1 | C 1.88
W1: G 3.65 | S 4.09 | Y 2.13 | N 4.04 | T 3.45 | C 3.78 | F 2.04 | M 2.88 | V 3.03 | L 3.54 | P 3.5 | K 3.97 | H 3.72 | D 4.38 | E 3.75 | R 3.79 | A 3.52 | I 3 | Q 3.23
H3: W 1.73 | D 3.37 | S 3.16 | V 1.72 | L 2.31 | Y 1.59 | M 2.52 | Q 2.5 | K 2.13 | F 1.87 | C 1.48 | R 2.44 | N 2.4 | P 2.79 | T 2.71 | I 1.74 | E 3.78 | G 2.76 | A 2.75
C9: K 1.84 | P 2.4 | A 2.19 | T 1.49 | I 1.17 | G 1.73 | H 1.85 | W 2.04 | N 1.97 | V 3.41 | L 2.69 | S 3.7 | D 2.07 | Q 2 | R 1.45
I2: E 3.89 | G 2.73 | F 1.61 | V 2.76 | A 2.68 | R 2.46 | H 2.77 | C 3.23 | Q 2.82 | L 2.34 | P 3.62 | S 3.27 | K 3.39 | T 3.13 | N 3.22 | W 2.12 | Y 2.23 | M 2.4 | D 3.9

Variants of: B2
Assay: as above
Details: c terminus: a fixed tail appended

Protein stability index of substitutions, site by site:
E17: N 1.66 | P 1.99 | F 2.38 | Y 2.15 | D 2.62 | W 4.03 | R 1.88 | A 3.57 | I 1.77 | L 1.56 | M 2.51 | T 2.08 | S 1.65 | Q 1.8 | K 2
T16: Y 2.07
E21: C 1.91 | L 1.91 | N 2.12 | R 1.79 | S 2.26 | I 2.33 | H 2.02 | K 2.07 | P 1.91 | D 2.02 | V 2.97 | Q 1.71 | W 1.7 | M 2.04 | A 2.71 | T 2.06 | F 3.2 | Y 1.68
D18: M 1.01 | A 1.73 | Q 1.77 | R 1.47 | G 2.32 | P 1.94 | S 1.33 | H 2.46 | F 3.47 | K 1.58 | L 2.61 | N 1.71 | V 1.23 | Y 1.24 | T 1.76
G19: K 2.71 | Y 1.33 | V 1.5 | S 2.27 | W 1.47 | M 2.05 | H 2.32 | Q 2.49 | C 1.95 | I 1.9 | E 2.43 | T 2.34 | A 2.33 | R 2.45 | P 2.21 | D 2.06 | L 1.93 | N 2.69 | F 1.54
P20: D 2.53 | L 1.71 | M 2.11 | R 2.15 | H 2.28 | I 2.25 | V 1.76 | F 1.44 | A 3.42 | T 2.72 | C 1.93 | K 2.47 | G 2.5
P22: W 1.83 | T 2 | Q 1.75 | S 1.81 | E 1.94 | H 2.39 | A 1.85 | L 2.63 | C 1.34 | I 2 | Y 1.25 | R 1.9 | F 1.67 | N 2.37 | G 1.75 | K 1.67 | D 3.31
K23: Y 1.39 | T 1.69 | A 2.66 | S 1.91 | H 1.84 | W 1.7 | G 1.83 | N 1.69 | E 2.13 | I 2.06 | C 2.07 | M 2.22 | V 2.14 | D 1.82 | F 1.63
D24: N 1.82 | L 2.94 | V 2.37 | Q 2.95 | M 1.56 | F 1.99 | E 2.12 | G 3.76 | R 1.83 | Y 2.58 | S 1.71 | C 1.36 | W 1.35 | H 1.35 | A 1.8 | P 2.16 | I 2.14 | T 1.75
